Data reported in patent US20230025039.

Columns and labels:
[1] = system: Cas13b-t1-REPAIR R and H to A in both HEPN domains (numbering not given) (Atlantic deep subsurface metagenome); assay: cell_activity; details: non-targeting control
[2] = system: Cas13b-t3-REPAIR R and H to A in both HEPN domains (numbering not given) (Planctomycetes bacterium isolate B28_G16); assay: cell_activity; details: non-targeting control

Substance	activity (normalized RLU) [1]	activity (normalized RLU) [2]
non-targeting editing gRNA (b-t1) ; Cypridina luciferase W85X mRNA	0.00795	–
non-targeting editing gRNA (b-t3) ; Cypridina luciferase W85X mRNA	–	0.00368
